From the RNAGym collection of RNA variant scans (doi:10.1073/pnas.2313332121) come the findings set out here.

Sequences and labels used below:
B1: TPR 5TU (parent)
chain: GGAUCUUCUCGAUCUAACAAAAAAGACAAAUCUGCCACAAAGCUUGAGAGCAUCUUCGGAUGCAGAGGCGGCAGCCUUCGGUGGCGCGAUAGCGCCAACGUUCUCAACUAUGACACGCAAAACGCGUGCUCCGUUGAAUGGAGUUUAUCAUG

Variants at the floor of the assay were thinned out.

In this data set the parent is B1. Briefly: polymerase ribozyme fitness, log enrichment relative to wild type (log ratio); higher = more active; in vitro selection for triplet polymerase activity. A digest of the protocol:
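To select mutant libraries of each subunit of a heterodimeric triplet polymerase ribozyme, built by PCR and transcribed, each was annealed with a biotinylated primer, partner subunit and triplets, then incubated frozen at −7 °C. Extended constructs were gel-excised, captured on streptavidin beads and amplified by RT-PCR, in one round carried out in triplicate. Illumina sequencing of input and output libraries kept genotypes with ≥10 input reads and ≥1 read per output. Fitness is the base-2 logarithm of genotype enrichment relative to wild-type enrichment, from inverse-variance-weighted replicate averages.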
As to A47C G58U G92U A97U, the “polymerase ribozyme fitness (log ratio)” value was -1.96. For G46C A91G, the “polymerase ribozyme fitness (log ratio)” value was -3.27. Next, G46C C85G G88A C118U U144G: ≤ -4.2; G48A U55G C85G C87G C149G: ≤ -4.2.

For the variant A47C U104G, the “polymerase ribozyme fitness (log ratio)” value was -0.804.

With A47C G50C A52C C85G C105A G141U, the “polymerase ribozyme fitness (log ratio)” value was ≤ -4.2.

On to A47C A73U G83C C118A, for which the “polymerase ribozyme fitness (log ratio)” value is ≤ -4.2. Regarding U45G G83C G117A, the “polymerase ribozyme fitness (log ratio)” value is -1.29.

For A47C C96U C103A C114G C123U, the “polymerase ribozyme fitness (log ratio)” value is ≤ -4.2. As for A47U U55A C95A A122G, the “polymerase ribozyme fitness (log ratio)” value was -0.42. To A47U G68A U82A A97G belongs ≤ -4.2; to G48C A89U A106U A107C A120G U139G, ≤ -4.2. Next, A47G G74A: -3.67; G46C U55A A89U C93G A106C U127C G140C: ≤ -4.2. For the variant A47G A49G G71A C87U A97U A106G A107C U111G U134C, the “polymerase ribozyme fitness (log ratio)” value is ≤ -4.2. Turning to U45G G94U G100C A150C, the “polymerase ribozyme fitness (log ratio)” value is ≤ -4.2. With A47C C85U G117U, the “polymerase ribozyme fitness (log ratio)” value came out at 0.38. To G48A U53A C85U C118U belongs -2.36; to G48A G117U, -0.676; to G48C G86A G141C U148G G152A, -4.03. To G48C G59U G94A A119U belongs -1.58.

In the case of A49C C87A C95A C123A, the “polymerase ribozyme fitness (log ratio)” value is ≤ -4.2. To A47C A110U belongs ≤ -4.2.

For G46A C57U G58C C76A C96A U101C A106U, the “polymerase ribozyme fitness (log ratio)” value is ≤ -4.2. Next, G48U U78A A91U U102G U144C: ≤ -4.2; A47U U55C G58C: -0.823; G46C G68A: -4.14.

Take A49C A91C: the “polymerase ribozyme fitness (log ratio)” value is ≤ -4.2. To A49C G50C C54G G70A C87G A89G C103U belongs ≤ -4.2; to A47G C85U A138G, -4.18.

As to U45A G86A, the “polymerase ribozyme fitness (log ratio)” value was -3.54.

Regarding A47U U82G G84A A97G U102G G136C, the “polymerase ribozyme fitness (log ratio)” value was ≤ -4.2. For the variant A47C U82G A110G, the “polymerase ribozyme fitness (log ratio)” value is -3.62. For A47C U61A C85G C108A, the “polymerase ribozyme fitness (log ratio)” value is ≤ -4.2. In the case of G46C G50U G84U A121C G124U, the “polymerase ribozyme fitness (log ratio)” value was -3.31. Next, U45A G68C U82G G83C G94A C118U: ≤ -4.2; A47G C85U: -1.36; A47C G83A: -2.37. In the case of G48C C57A C99U U130C, the “polymerase ribozyme fitness (log ratio)” value is -2.37. For the variant U45G G50C C57A G59A C75U G94C A106U A107U, the “polymerase ribozyme fitness (log ratio)” value is ≤ -4.2. For the variant G46A U56A G83U, the “polymerase ribozyme fitness (log ratio)” value was -2.27.

As to U45A C87U, the “polymerase ribozyme fitness (log ratio)” value is -3.28. Next, A49C C93U G133A: ≤ -4.2; G46A G59A: 0.222; A47C C85A: -2.92. Next, G48C U61A C93U U151A: ≤ -4.2; A47G U53A C75G U90C: ≤ -4.2; G48C G62A: -3.59.

For G46A G67U C87A C103G U111C G140A, the “polymerase ribozyme fitness (log ratio)” value was ≤ -4.2. To A47U G48U U55A U82G U134C belongs -3.1; to A47G G59A C103A C131U U134C, -2.12. Next, G48A A52G: 0.139; G48U G74A C85G A115C U134A: ≤ -4.2; U45A G84U: ≤ -4.2. Turning to U45A C96G A121U, the “polymerase ribozyme fitness (log ratio)” value is -2.93. On to A47U A97G C132U, for which the “polymerase ribozyme fitness (log ratio)” value is -2.35. To A47G G58C C93A U101G belongs -3.96. With G46C C118G, the “polymerase ribozyme fitness (log ratio)” value was -1.24.

As for A47G G48A G70A U77G C95U C108G A122U, the “polymerase ribozyme fitness (log ratio)” value was ≤ -4.2. Next, A47C A115C U144G: -0.866. G46A A49C G59C U61A G86U: the “polymerase ribozyme fitness (log ratio)” value was ≤ -4.2. As to A47C U55G U56C C85U G133C G140C, the “polymerase ribozyme fitness (log ratio)” value was ≤ -4.2. As to A47C C96U, the “polymerase ribozyme fitness (log ratio)” value came out at 0.15.

As to A47C G50A G83A, the “polymerase ribozyme fitness (log ratio)” value is -2.44.

Take G46A G50C C79A G84U C95U A115C: the “polymerase ribozyme fitness (log ratio)” value was ≤ -4.2. With G48U C95U, the “polymerase ribozyme fitness (log ratio)” value is -1.01.

Turning to U45G A49C C63G G84A G141C, the “polymerase ribozyme fitness (log ratio)” value is ≤ -4.2. To A47C C51U A52C C75A C96U C103A A110C belongs ≤ -4.2. Next, U45A G50C C54G G67A C87A A91U A115C: ≤ -4.2; A47G G65C A106G A120G: -4.14; G46U U144C: -0.573. To A47G G50C U53A A97U G124C belongs ≤ -4.2. For the variant G48C C75U G81A G84U A97U G141U A150U, the “polymerase ribozyme fitness (log ratio)” value was ≤ -4.2. To G48A U61A belongs -2.86; to A49C C99U U102G U109A, -2.46.

On to A47C C72U G92A, for which the “polymerase ribozyme fitness (log ratio)” value was -3.53. Next, A47C G48U G50A U55A G94A: ≤ -4.2. To A47C G50U G59A G70A C79U U82G C95U G124A U144G belongs ≤ -4.2. Turning to A47U G71C G83A C118U, the “polymerase ribozyme fitness (log ratio)” value is ≤ -4.2. To A47C A52G U53A G86A G94C belongs ≤ -4.2; to G48U G80U C96G, ≤ -4.2. To G48U U148C belongs -3.36. For G46A U53G C57U G86A A115C, the “polymerase ribozyme fitness (log ratio)” value was ≤ -4.2.
